This is an account of results in a protein production outcome set (Wang et al. 2014).
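Also: failed if final PepcDB status was selected cloned or expressed and not failed if soluble or beyond.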

The data set is described as follows: label from the status in PepcDB records.
As for “MKVERRTIEYIPNEERHGKAKDLFPVWFGANMHITTLVTGTIPVAMGLNLFWSVAAIICGTLIGAIFMASHSAQGPQLGIPQMIQSRAQFGVIGAILPLFLVMFIYLGFFASSTILAAGTLSSFVPIPGSWSIIGLSAVCFLLTIFGHDLIHKMQKILSWTSFAVFFAATILIFQLPIPAGSWIPGAIDLPIFLVAVSAVATWQLAYAPYVADYSRYLPVKTPASKTFWYSYAGTSVSSIWMMLLGALLTTSLPDFTANSGSQIVQLFGPFSFIMLIIVLFGQMAINVFNLYGAFMSTTTTLEPFLKLKVTPKVRIIMILGVTLVGTVLSLLGQSNFMELFLNFIFFISYFLIPWTAINLVDYYFVRHGKYQVKAMFDVNGPYGKVNWITTIAFVLSILLEIPFINTSFYIGPLAKMFGGGDIAWIIGLAVPSVLYYVLMKPRLKKRAGYQEKLSSL”, the protein production entry is “failed”. With “MLPASNGSVSLPQPKEWENGCRLGFIHMAAKGIVQVISAQVLSGTTLTLGWLGYVPLLIWAVSRVRWVELFTDRRRQHLLFGTVFCLFALWLVRRDFDTGVSYHFIGMTAVTLLLDWPLAVLGGFMAQLGLLALGRQDLAALGVNGLMLIGLPVLITEVCAIVVERAQPRNLFVYIFCSGFFPAALTVLVCVPAALGVLWLDGRFALPEWLSDFVGYLWLMMFPEAFINGMVISALVVFCPEWLETFNRTRYLQAPWKEDER”, the protein production result is given as “failed”. Consider “MLAQKNTNKKPFGNTLTNILCKDKKKKNLDPQISSLVSLVDNMDITQEKKDKIKNLSLKYINSRDVKEKNESINELQKYSNNEECKEQMDSYLMHLRMQNDIKCLKRKNLWNNIGINSITLSLIIIMIMIACMFAIYSTAQYIYVPASFLLIFIIYIVARYFPDMKIGFKKLKTKLNTFFQNKKQITK”, for which the protein production result was “failed”. As for “MADNYVIWFENLRMTDVERVGGKNASLGEMISQLTEKGVRVPGGFATTAEAYRAFLAHNGLSERISAALAKLDVEDVAELARVGKEIRQWILDTPFPEQLDAEIEAAWNKMVADAGGADISVAVRSSATAEDLPDASFAGQQETFLNINGLDNVKEAMHHVFASLYNDRAISYRVHKGFEHDIVALSAGVQRMVRSDSGASGVMFTLDTESGYDQVVFVTSSYGLGENVVQGAVNPDEFYVFKPTLKAGKPAILRKTMGSKHIKMIFTDKAEAGKSVTNVDVPEEDRNRFSITDEEITELAHYALTIEKHYGRPMDIEWGRDGLDGKLYILQARPETVKSQEEGNRNLRRFAINGDKTVLCEGRAIGQKVGQGKVRLIKDASEMDSVEAGDVLVTDMTDPDWEPV”, the protein production entry is recorded as “not failed”.

In the case of “MSQFAINIMFVGGSFLLYIAIAVWAKAGSTSDFYVAGGGVHPITNGAAIGADWMSAASFISMAGLIAAGGYANSTFLMGWTGGYVLLAMLLAPYLRKFGKFTVPEFIGDRYYSANARLVAVICLIVASVTYVIGQMAGAGVAFSRFLEVDATTGLIIAAVVVFVYAVLGGMKGITYTQVAQYCVLIVAYTIPAVFISIQLTGNPIPGLGMFSTHTDSGLPLLEKLNQVITDLGFNEYTADVDNKLNMVLFTLSLMIGTAGLPHVIIRFFTVPKVADARWSGGWALVFIALLYLTAPAVASMARLNLMTTIYPDGTQAAPIEYDERPNWVKEWEVTGLIQFTDKNEDGRIQLYNDVPAFEAEAQARGWNGNELVVNRDILVLANPEIANLPGWVIGLIAAGGLAAALSTAAGLLLAISSAVSHDLIKGRFNPSISDKGELMAARISMAVAIVVATYLGANPPGFAAQVVALAFGIAAASLFPALMMGIFSKRVNNVGATLGMLSGLLFTLIYIFVYKGWLFIPGTNNLPDTPENWVLGISPLSIGAVGALVNFAVAFAVSKATAEPPVEIQELVESVRYPRGAGTAQDH”, the protein production entry is recorded as “failed”. For “MSLNETYMMITFQSGMDYWKRCLKGFEDAAQALNVTVEYRGAAQYDIQEQITVLEQAIAKNPAGIAISAIDPVELTDTINKAVDAGIPIVLFDSGAPDSHAHSFLGTNNYNAGMNAAYKMAELLDGEGEVAVITLPNQLNHQERTTGFKETLEAEFPAIEVIAVEDGRGDSLHSRRVAHQLLEDYPNLAGIFATEANGGVGVGDAVRLESRAGEIQIISFDTDKGTLDLVDEGIISATLAQGTWNMGYWSLTYLFHLHHGLTEPQILQTREEAPLPLYVDTGITIVTDENVDYYYADEGHHHHHH”, the protein production result is “not failed”.

For the sequence “MNADYFFNQGLSDNLSREYQRTVVGGTKPTNRRIDAETYCKRGITFSRELKDYQGAIAFFNLAVEINPNYAQAYYHRANARYCLADFTAAIADYDQALQINPTFAEYYYCRGNAYLAQGDYDQAIANYISTIEFDPLLASNINEDIANAYYYRGLNNNDQGNYQEAIIDLQQALQWHPYFAAAYSIRGNIYYKLGEYRQAIADHERAVQLDPNLAEAYQNRGNAHYALGAYQKAIADYNRTLEINPHQVGAYYNRGLISFYLHEYQQAFADFNQVLNFNPNDAQAYYQRGLIYEAWQDYQSALADYNQSLQLNSELAVVYGVRANIYRHLGDYPSALADGNRLLELQPNFAAGYCDRATSRRCLGDYRGAIADYNQALQINPNIAEAYYGRAIAHEALRDFIGAIADYTQSIRISPDFAPAYCNRGNARRQLGDTKGAVTDYNQALTINPQLSEAYYNRGSLHYDQQNYRSAIADYTQALELQPESARYYSDRAHARYALQDYQGAVADYTQSIAINPGYAEDWYNRGRSHLLLGYLEEALADLNQALKFHPHWASAYLLRADILRNRGDYQAAIADFQKSADLYSQEGNTQNYQQILEIIAGLK”, the protein production entry is listed as “failed”.

As to “MSASTGASVIDLYHQAQDYFFVSISQFYRRFGSGLSAYCTGVEASSLNLLMMNVCAVDEPGALAEGVAFLQRTGMPFCVVVPEALVPRVSGQLHQQHLLAADKTTCMVLDLTRHEPRQALAAQAQVRCSDLRLEDWAQPVQSAFESGEGGIEQYLARHRAALSAGRALSHFTLYVEERPVSALTLSLLPGLARLDDIGTVQDCQGQGYATALIQAVLAFARARGARTCVLEASLDGLSIYRKAGFEALFDYRTFCQE”, the protein production result is reported as “failed”. For “MSLSKDNIWKLLAPLVVMGVMLLIPVPDGMPPQAWHYFAVFVAMIVGMILEPIPATAISFIAVTICVIGSNYLLFDASELADPAFKASKQALKWGLAGFSSTTVWLVFGAFIFALGYEVTGLGRRIALFLVKFMGKRTLTLGYAIVIIDILLAPFTPSNTARTGGTVFPVIKNLPPLFKSFPNDPSARRIGGYLMWMMVISTSLSSSMFVTGAAPNVLGLEFVSKIAGVQISWLQWFLSFLPVGIILLIVAPWLSYVLYKPEVTHSAEVAAWAGGELKNMGRLSRKEWTLIGLVLLSLGLWVFGGKIINATAVGLLAVSLMLALHVVPWKDITRYNSAWNTLVNLATLVVMANGLTRSGFIDWFANTMSTHLEGFSPDATVIVLVLVLVLVLVLVLVLVLVLVLVLVLVLVFYFAHYLFASLSAHTATMLPVILAVGKGIPGVPMEQLCILLVLSIGIMGCLTPYATGPGVIIYGCGYVKSRDYWRLGAIFGVIYIAMLLLVGWPILAMWN” the value was “failed”; for “MTVNVYDLANELERGIRALPEYQALVQAKAKIDEDEEAKKLWTEFTEFQMKIQGLIQTGQAPTPEVQTEMQSFNQKIEANPLLKEYATAQQALGVYVNDIERIIFSPLQDIAK”, “not failed”. In the case of “MTQYTHIRNATGKLTIKNTTFLIDPFLAPKDTYPGFEGTFNYQQRMPMVDLPLSMDDLLSNVTAVVVTHTHLDHWDDTAINSIPKSLPIFVQNTADKELITSQGFIDVRIIFESLEFNGITLRKTGGSHGTVEMYANPVLAPLAGDAMGVIFEAADEPTVYLVGDTVWTSDVEKALLRFDPNVIIMNTGYAQILGFEDSIIMGTKDIGRMVVRKPEAKIIAVHMDTVNHTATSRKDVRKFIKGNNIESHVAVPEDGETITL” it was “not failed”; in that of “MPIPLEKQNKERRQKILTCSLDLFIEKGYYNTSIRDIIALSEVGTGTFYNYFVDKEDILKNLLEDFAKQIISSISEYYLVEKDLYERFIETKRLTMEVFAQNETLSEIYSRVAGSSAPIDQCLKQFEDRLLEFYSRNIEYGIKKGVFKNVPVSPIAHSILAIEKFSLYKWVVLKAITKEEMIEMVLSFHKTLAVGLLVVND”, “not failed”; in that of “DSASQAEQFLKLVHADKLTVPVYAQVQQMLAQRFAQAKAPESKKAVLERYQAKANAELDRAIGWDKIKPELIKLYTTNFTESELKDLNAFYQSPLGKKVLEKMPRLTAESAQLTQAKLQGAVEPVNKLMADMDKELGVAAPAQKKK”, “not failed”. As for “MCTSLTLETKNGQHLFARTMDFTLDMNQEVIIIPRHYQWNNITGEIINTKHATVGMGINHQGRIIMADGVNEAGMTCATLYFPGFATYSQSIDDNTTNLAPFDFVTWSLTQFNSVKELKKSVDSITFLDIPLPDLGLTPPLHWILADKWGDCIVLDPTSEGLKLYDNPLGVMTNSPEFNWHLQNLRQYIGLKSQPFAPTEWSNLPLSAFGQGSGSMGLPGDFTPPSRFVRAAYGKQNIQGIDSEEEGVSALFHILSNCEVPKGGVITEEGALDNTIYTSVMCMESGTYYYHTYDCRQIIAVHLFHENLDTDEIKAYPFQRKQKIFYEN”, the protein production entry is listed as “failed”.

With “MPYDTSNNTLIVSTRNHQDDDETAIVDDLQRLVNYQISDGGNINHQYFQIAQQFHHTQQQNANANALQLVAAATTATTLMPQTQAALAMNMIPAGTIPNNALWDMWNPIVPDGNRDHYTNIPFK”, the protein production entry was “failed”.

“MTTRILTGITPTGTPHLGNYAGAIRPAILASRRSDVDSFYFLADYHALIKCDDPARIQRSRLEIAATWLAGGLDVERATFYRQSDIPEIPELTWLLTCVSAKGLLNRAHAYKAAVDRNVEAGEDPDAGVTMGLYSYPVLMAADILMFNAHKIPVGRDQVQHVEMARDIGQRFNHLFGNGREFFVLPEAVIEENVATLPGLDGRKMSKSYDNTIPLFSPSRQLKDAIARIVTDSRAPGEPKDPDSSHLFLLYSAFASAEQVAAFRQELLEGLAWGEAKQRLFQLLDNELGEARERYQALIAKPDDIEDILLAGAAKARRIATPFIAELREAVGLRSLREPLKSAESGKKKAAKAARLVSFRDDDGSFRFRLLDAAGEQLLLSRAFADGKAAGAVSKRLLAGETADLRAEGNAFGLWLDGEAVAQSPAFADAAARDAAIERTREALAPQ”: the protein production result is recorded as “failed”.

For “MKFGPRRPADAIGGVTVHSLRQNGLLLKKGTTIGPAEVAALEKAGIAEIVVVQLEPGDVSEDVAAADVAGAVAGDGITVDRAFTGRANLFAGRTGVLVIDRAVVDRINAVDEAITLATLPAFKPVVEGEMVATVKLIPFGVESRLRDAAVAAAQGSALRVAPYVIKRVGVVSTLLPGLAPKVIDKTLRVTAERLAPAGAEIIAERRVAHEEAALSAAIKELLGLGADMVIVFGASAIADRRDVIPAAIGTVGGTISHFGMPVDPGNLLLVGSVSGVPVLGAPGCARSPVENGFDWVLMRLLAGLTVTRADITAMGVGGLLMEIVTRPQPRVPVAESGRNVAAIVLAAGRGTRMGGPNKLLADLNGKPLVRIVAEQALASQAARTIIVTGHQAGEVEAALYGLDLTFVHNPDFAQGIASSVKTGIAALGEDADGAIVCLGDMPLIDAALIDRMITAFDPDRGALIVVPVAEGRRGNPVLWSRRFFTELMTLGGDVGARHLIAKHGEAVTEVPVEGEAAFLDIDTPQALDEARRG”, the protein production result is listed as “failed”. For “MPAPRYKSGSSKKVYRKAPGNSSIVHYRRKKQSKAVCGACGALLNGVPRGRAVEITKLAKTEKRPERPFGGNLCPKCVKKMMVAKARNFLEHHHHHH” the value was “not failed”; for “MMTFNLREQQKRLQARMDELRAEIAFAQKGEKPWPYRSCLMREGRGYCEKHGEYHTHILVWSDRNGEDREEISCCPDCLIAEANDLTMELSSIKAEELTDNAGIALRFRDCEFDNYLEVNPGAARNLAACRRYAENWPDMLENGTSLVMTGSCGTGKNHLAVAMAKHIIRNYLASVEITDVMRLTRAVKNCWRNDSEKTADEVIERYASMDLLIIDEVGVQFGSAAEMAILQEIINARYESILPTILISNLSPEELWAFISPRIADRITDGGRNWLSFNWPSYRSRIRGVAALEHHHHHH”, “failed”. As for “MLSMLALGSEKLMMGNNFPGSGVCFVYTDFGIPEYYRIIVLGLIALVGIKEMLLTSRKEDHFSIDSIDIGIFPLLICFVANFLFAGLEIIFTGLSP”, the protein production entry was “failed”.
